From US20220348635A1, “COMPOSITIONS AND METHODS FOR NEUROLOGICAL DISEASES” (Coda Biotherapeutics, Inc., priority 2019, published 2022) come the findings set out here.

What all share (assay type): cell-based
Assay [1] is described as follows: YFP quench plate reader assay, response to ABT-126. Particulars: LX293T YFP reporter cells. The text has this: (§1) FIGS. 1A-FIG. 1G show the heat maps of the percent quench of YFP fluorescence in the mutants of the engineered chimeric receptor SEQ ID NO:33 that comprise the indicated double amino acid substitutions following stimulation by various doses of either acetylcholine or the indicated non-native ligand. Ligand doses are written across the top of each chart. Numbers in the boxes indicate the absolute amount of quench observed. Dark blue=80% maximal quench of YFP reporter. Light blue=quench of 30-80%. White=10-30%. Orange=0-10% quench. Negative values represent non-responders that have a negative quench due to a stimulation artifact. SEQ ID NO:29 is a non-responding chimera used as a negative control. Abbreviations for non-native ligand names: abt: ABT-126; ach: acetylcholine; apn: APN-1125; azd: AZD-0328; brd: TC-5619; fac: RG3487; tc6: TC-6987.
(§2) Tables 2-8 below lists percent quench of YFP fluorescence following stimulation of the indicated engineered receptor by various doses of either acetylcholine or the non-native ligand.
(§3) To screen these mutant LGICs for those having novel response profiles to ligands, an anion reporter assay was developed to assess the function of channels in a high throughput format. In this assay, cells expressing a YFP reporter whose fluorescence is quenched in the presence of anion are transfected with DNA encoding the channel of interest. Upon exposure to ligand, channels that are activated will flux anion, resulting in a dose-dependent quench of the YFP that can be detected on a plate reader.
(§4) Lenti-X 293T cells (LX293T, Clontech) were maintained in DMEM containing 10% FBS and 1% penicillin/streptomycin (Invitrogen). […] Two days before assay, cells were split at a density of 20,000 cells/well in a 96-well tissue culture plate coated with poly-d lysine (Thermo Scientific). The next day, the cells were transiently transfected with 0.1 μg of DNA per well using standard Fugene protocol (Promega). On the day of assay, cells were washed 2 times in 1× extracellular solution (1×ECS: 140 mM NaCl, 5 mM KCl, 1 mM MgCl2, 2 mM CaCl2, 10 mM HEPES, 10 mM glucose, pH 7.2, mOsms 300). After the last wash, 100 μL of 1×ECS was added to the wells and the plate was incubated at 37° C. for 30 min. While incubating the plate, the drugs were diluted to a 2× concentration in 1×ECS-NaI (same components as 1×ECS except the 140 mM NaCl was replaced by 140 mM NaI). The plates were then read on a Flexstation3 (Molecular Devices). Each well, 8 wells at a time, of the plate is read for 2 min using a Flexstation3 (Molecular Devices) as follows: 1) a baseline YFP fluorescence is read for 17 sec, 2) 100 μL of ligand is added, and 3) the changes in YFP fluorescence are then measured every 1.3 sec for the remaining time.
(§5) FIG. 1 provides heat maps of the percent quench of YFP fluorescence following stimulation by various doses of either acetylcholine or the non-native ligand as indicated in the Figure. A positive fluorescence signal, as indicated by blue shaded cells, indicate that the engineered receptor is activated by the non-native ligand at that concentration. […] Table 12 lists the EC50 values for the indicated double mutants to acetylcholine (Ach) and TC-5619 as determined from the YFP fluorescence plate reader experiment.

Assay [2] is described as follows: YFP quench plate reader assay, response to AZD-0328. The following applies: LX293T YFP reporter cells.
From the text: as §1, §2, §3, §4, §5

Assay [3] is described as follows: YFP quench plate reader assay, response to acetylcholine. Particulars: LX293T YFP reporter cells.
From the text: as §1, §2, §3, §4, §5

A short description of assay [4]: YFP quench plate reader assay, response to TC-5619. The following applies: LX293T YFP reporter cells.
From the text: as §1, §2, §3, §4, §5

A short description of assay [5]: YFP quench plate reader assay, response to TC-6987. Particulars: LX293T YFP reporter cells.
From the text: as §1, §2, §3, §4, §5

The nature of assay [6]: YFP quench plate reader assay, response to RG3487. Particulars: LX293T YFP reporter cells.
From the text: as §1, §2, §3, §4, §5

Assay [7] is described as follows: YFP quench plate reader assay, response to APN-1125. The following applies: LX293T YFP reporter cells.
From the text: as §1, §2, §3, §4, §5

The nature of assay [8]: High throughput electrophysiology in HEK293T cells, AZD-0328. The following applies: HEK293T cells, held at −60 mV. The protocol: To confirm the EC50s determined by plate reader as well as develop a better understanding of maximum current flow, the engineered receptors were subjected to high throughput electrophysiology system, as described below. For HEK293T studies, cDNAs encoding ion channels were cloned into pcDNA3.1 using standard recombination techniques. HEK293T cells from Clontech (Lenti-X™ 293T Cell Line) were cultured in DMEM supplemented with 10% FBS and 1% Pen/Strep to 40-50% confluence using standard cell culture protocols, transfected with ion channel plasmids at a concentration of 18 μg per 15 cm dish using Fugene 6, and grown for an additional 24 hours. Cells were then assayed on a electrophysiological system (IonFluxHT and/or Mercury, Fluxion Biosciences) in which dose-response relationships may be assessed through a microfluidics-based platform for establishing whole cell configurations. Ensemble plates were primed with extracellular buffer (140 mM NaCl, 5 mM KCl, 2 mM CaCl2), 1 mM MgCl2, 10 mM HEPES, and 10 mM glucose, pH 7.2 with NaOH, mOsm 310), intracellular buffer (145 mM CsCl, 2 mM CaCl2, 2 mM MgCl2, 10 mM HEPES, and 10 mM EGTA, pH 7.2 with CsOH, mOsm 305), as adapted from Lynagh and Lynch, and test compounds (stocks prepared fresh) diluted in extracellular buffer. Cells were then released from the plate with Accutase, centrifuged, resuspended in extracellular buffer, and loaded into Ensemble plates. Cells were then subjected to a standard protocol for priming, trapping, breaking, and establishing whole cell configuration, with cells held at −60 mV throughout the recording. After recording baseline, progressive doses of test compounds were applied using the IonFlux software to assess dose response relationships. Data were then analyzed off-line using custom Python scripts to convert data to .csv format, re-plot traces, and apply QC measurements to reject unstable recordings (i.e. thresholding based on access resistance and/or standard deviation in baseline, as well as artifact rejection). Peak currents were then calculated and population data were fit using a 4-parameter logistic equation as described by the Hill Equation. Currents were measured on an automated patch clamp system (Fluxion Biosciences) following 1 second addition of drug and the EC50 values calculated are tabulated below in Table 13.

B1: Y115D, S170T in SEQ ID NO: 33: engineered chimeric α7-nAChR/GlyRα1 LGIC receptor: SEQ ID NO: 33 with substitutions Y115D and S170T (protein)
chain: MRCSPGGVWLALAASLLHVSLQGEFQRKLYKELVKNYNPLERPVANDSQPLTVYFSLSLLQIMDVDEKNQVLTTNIWLQMSWTDHYLQWNVSEYPGVKTVRFPDGQIWKPDILLDNSADERFDATFHTNVLVNSSGHCQYLPPGIFKSSCPMDLKNFPMDVQTCKLKFGTWSYGGWSLDLQMQEADISGYIPNGEWDLVGIPGKRSERFYECCKEPYPDVTFTVTMRRRMGYYLIQMYIPSLLIVILSWISFWINMDAAPARVGLGITTVLTMTTQSSGSRASLPKVSYVKAIDIWMAVCLLFVFSALLEYAAVNFVSRQHKELLRFRRKRRHHKSPMLNLFQEDEAGEGRFNFSAYGMGPACLQAKDGISVKGANNSNTTNPPPAPSKSPEEMRKLFIQRAKKIDKISRIGFPMAFLIFNMFYWIIYKIVRREDVHNQ
modifications: synthetic sequence of chimeric LGIC
Take B1: the “percent quench of YFP fluorescence, 50 nM abt” value in assay [1] (50 nM ABT-126) is given as −11.83%. Moreover, the “percent quench of YFP fluorescence, 100 nM abt” value in assay [1] (100 nM ABT-126) is on record as −11.5%. Also, the “percent quench of YFP fluorescence, 300 nM abt” value in assay [1] (300 nM ABT-126) is reported as −8.01%. For the same molecule, the “percent quench of YFP fluorescence, 1 uM abt” value in assay [1] (1 uM ABT-126) was −9.34%. Further, the “percent quench of YFP fluorescence, 100 nM azd” value in assay [2] (100 nM AZD-0328) is reported as −0.71%. Moreover, the “percent quench of YFP fluorescence, 300 nM azd” value in assay [2] (300 nM AZD-0328) is −1.73%. Besides, the “percent quench of YFP fluorescence, 30 uM azd” value in assay [2] (30 uM AZD-0328) is given as 47.39%. The “percent quench of YFP fluorescence, 10 uM ach” value in assay [3] (10 uM acetylcholine) is −0.46%. The “percent quench of YFP fluorescence, 100 uM ach” value in assay [3] (100 uM acetylcholine) is on record as −4.93%. Moreover, in assay [3] (1 mM acetylcholine), the “percent quench of YFP fluorescence, 1 mM ach” value was −11.18%. Besides, the “percent quench of YFP fluorescence, 3 mM ach” value in assay [3] (3 mM acetylcholine) is on record as −3.53%. In addition, the “percent quench of YFP fluorescence, 1 nM brd” value in assay [4] (1 nM TC-5619) is −9.78%. The “percent quench of YFP fluorescence, 3 nM brd” value in assay [4] (3 nM TC-5619) amounted to 12.06%. Besides, the “percent quench of YFP fluorescence, 10 nM brd” value in assay [4] (10 nM TC-5619) was −9.02%. Moreover, the “percent quench of YFP fluorescence, 30 nM brd” value in assay [4] (30 nM TC-5619) is listed as 16.3%. Further, in assay [4] (100 nM TC-5619), the “percent quench of YFP fluorescence, 100 nM brd” value is −7.44%. The “percent quench of YFP fluorescence, 300 nM brd” value in assay [4] (300 nM TC-5619) is reported as −10.93%. Moreover, the “percent quench of YFP fluorescence, 1 uM brd” value in assay [4] (1 uM TC-5619) was −4.55%. Besides, the “percent quench of YFP fluorescence, 1 uM tc6” value in assay [5] (1 uM TC-6987) was found to be 31.9%. The “percent quench of YFP fluorescence, 10 uM tc6” value in assay [5] (10 uM TC-6987) is 25.54%. Also, the “percent quench of YFP fluorescence, 500 uM tc6” value in assay [5] (500 uM TC-6987) was 21.13%. Moreover, in assay [6] (30 nM RG3487), the “percent quench of YFP fluorescence, 30 nM fac” value is 38.08%. In assay [6] (100 nM RG3487), the “percent quench of YFP fluorescence, 100 nM fac” value is −14.37%. The “percent quench of YFP fluorescence, 300 nM fac” value in assay [6] (300 nM RG3487) is listed as 19.41%. Also, the “percent quench of YFP fluorescence, 10 uM fac” value in assay [6] (10 uM RG3487) was found to be 67.33%. Further, the “percent quench of YFP fluorescence, 30 uM fac” value in assay [6] (30 uM RG3487) is on record as 79.67%. In addition, the “percent quench of YFP fluorescence, 100 nM apn” value in assay [7] (100 nM APN-1125) is −18.17%. Further, the “percent quench of YFP fluorescence, 1 uM apn” value in assay [7] (1 uM APN-1125) is −15.2%. In addition, the “percent quench of YFP fluorescence, 30 uM apn” value in assay [7] (30 uM APN-1125) is −14%. Moreover, the “EC50 AZD-0328” value in assay [8] is given as “no activity”.

B2: Y115D in SEQ ID NO: 33: SEQ ID NO: 33 chimeric receptor with single substitution Y115D (protein)
chain: MRCSPGGVWLALAASLLHVSLQGEFQRKLYKELVKNYNPLERPVANDSQPLTVYFSLSLLQIMDVDEKNQVLTTNIWLQMSWTDHYLQWNVSEYPGVKTVRFPDGQIWKPDILLDNSADERFDATFHTNVLVNSSGHCQYLPPGIFKSSCPMDLKNFPMDVQTCKLKFGSWSYGGWSLDLQMQEADISGYIPNGEWDLVGIPGKRSERFYECCKEPYPDVTFTVTMRRRMGYYLIQMYIPSLLIVILSWISFWINMDAAPARVGLGITTVLTMTTQSSGSRASLPKVSYVKAIDIWMAVCLLFVFSALLEYAAVNFVSRQHKELLRFRRKRRHHKSPMLNLFQEDEAGEGRFNFSAYGMGPACLQAKDGISVKGANNSNTTNPPPAPSKSPEEMRKLFIQRAKKIDKISRIGFPMAFLIFNMFYWIIYKIVRREDVHNQ
modifications: synthetic sequence of chimeric LGIC
As for B2, the “EC50 AZD-0328” value in assay [8] is listed as “no activity”.

B3: Y115E in SEQ ID NO: 33: SEQ ID NO: 33 chimeric receptor with single substitution Y115E (protein)
chain: MRCSPGGVWLALAASLLHVSLQGEFQRKLYKELVKNYNPLERPVANDSQPLTVYFSLSLLQIMDVDEKNQVLTTNIWLQMSWTDHYLQWNVSEYPGVKTVRFPDGQIWKPDILLENSADERFDATFHTNVLVNSSGHCQYLPPGIFKSSCPMDLKNFPMDVQTCKLKFGSWSYGGWSLDLQMQEADISGYIPNGEWDLVGIPGKRSERFYECCKEPYPDVTFTVTMRRRMGYYLIQMYIPSLLIVILSWISFWINMDAAPARVGLGITTVLTMTTQSSGSRASLPKVSYVKAIDIWMAVCLLFVFSALLEYAAVNFVSRQHKELLRFRRKRRHHKSPMLNLFQEDEAGEGRFNFSAYGMGPACLQAKDGISVKGANNSNTTNPPPAPSKSPEEMRKLFIQRAKKIDKISRIGFPMAFLIFNMFYWIIYKIVRREDVHNQ
modifications: synthetic sequence of chimeric LGIC
As for B3, the “EC50 AZD-0328” value in assay [8] is on record as “no activity”.
